Results taken from patent US20120269827A1, “Compositions and Methods for Treatment of Ovarian, Peritoneal, and Fallopian Tube Cancer” (ImmunoGen, Inc., priority 2011, published 2012).
“Also recorded” adds a separate entry of the source.

B1: lorvotuzumab mertansine: antibody-drug conjugate comprised of the CD56-binding monoclonal antibody huN901, the SPP linker, and the maytansinoid cytotoxic agent DM1 (conjugate, chains of the INN, looked up)
VH: QVQLVESGGGVVQPGRSLRLSCAASGFTFSSFGMHWVRQAPGKGLEWVAYISSGSFTIYYADSVKGRFTISRDNSKNTLYLQMNSLRAEDTAVYYCARMRKGYAMDYWGQGTLVTVSS
VL: DVVMTQSPLSLPVTLGQPASISCRSSQIIIHSDGNTYLEWFQQRPGQSPRRLIYKVSNRFSGVPDRFSGSGSGTDFTLKISRVEAEDVGVYYCFQGSHVPHTFGQGTKVEIK
modifications: SPP linker, DM1 maytansinoid

How the values were obtained:
[1] = test system: COLO 720E human ovarian carcinoma xenografts; experiment: Anti-tumor effect of lorvotuzumab mertansine and gemcitabine in established subcutaneous COLO 720E xenografts (Example 1); assay type: in vivo, athymic nude mice; details: for % of tumor growth for treated vs. control (T/C) / anti-tumor activity rating (NCI standards): lorvotuzumab mertansine 11 mg/kg iv once weekly x3, gemcitabine 80 mg/kg ip every three days x4, combination same doses; for tumor regressions (any): six mice per group, single-agent groups
Text: (§1) Mice were inoculated with human ovarian cancer cell lines and allowed to become established (average tumor size of about 100 mm^3) prior to treatment. Conjugate dosing is described based on antibody concentration. Efficacy is reported as both the % of tumor growth for treated vs. control (% T/C) and log cell kill (LCK) determined from the tumor doubling time and the tumor growth delay due to the treatment.
The anti-tumor effect of a combination of lorvotuzumab mertansine and gemcitabine was evaluated in an established subcutaneous xenograft model of ovarian cancer. Athymic nude mice were inoculated with COLO 720E human ovarian cancer cells (1×10^7 cells/animal) injected subcutaneously into the right flank. When the tumors reached about 110 mm^3 in size (10 days after tumor cell inoculation), the mice were randomly divided into four groups (six animals per group). A control group was treated with a single intravenous injection of PBS. A second group of mice were treated with the single agent lorvotuzumab mertansine at a dose of 11 mg/kg once weekly for three weeks (days 11, 18 and 25 post tumor cell inoculation) administered intravenously. The third group received single-agent gemcitabine administered intraperitoneally at a dose of 80 mg/kg every three days for a total of four injections (days 11, 14, 17 and 20 post tumor cell inoculation). A fourth group was treated with the combination of lorvotuzumab mertansine and gemcitabine with the same doses and routes of administration as for individual treatments. Tumor growth was monitored by measuring tumor size twice per week. Tumor size was calculated with the formula: length×width×height×½.

[2] = test system: COLO 720E human ovarian carcinoma xenografts; experiment: Anti-tumor effect of lorvotuzumab mertansine and topotecan in established subcutaneous COLO 720E xenografts (Example 2); assay type: in vivo, athymic nude mice; design: key to anti-tumor activity rating (NCI standards): Percent T/C values less than or equal to 42% and/or LCK values of 0.5 or greater are considered active; percent T/C values less than 10% are considered highly active; details: for mice tumor free until the end of the study: day 120, six mice per group; for % of tumor growth for treated vs. control (T/C) / anti-tumor activity rating (NCI standards): lorvotuzumab mertansine 11 mg/kg iv once weekly x3, topotecan 0.7 mg/kg ip 5/2/5 schedule, combination same doses
Text: Mice were inoculated with human ovarian cancer cell lines and allowed to become established (average tumor size of about 100 mm^3) prior to treatment. Conjugate dosing is described based on antibody concentration. Efficacy is reported as both the % of tumor growth for treated vs. control (% T/C) and log cell kill (LCK) determined from the tumor doubling time and the tumor growth delay due to the treatment. […] Athymic nude mice were inoculated with COLO 720E human ovarian cancer cells (1×10^7 cells/animal) injected subcutaneously into the right flank. When the tumors reached about 115 mm^3 in size (12 days after tumor cell inoculation), the mice were randomly divided into four groups (six animals per group). A control group was treated with a single intravenous injection of PBS. A second group of mice were treated with the single agent lorvotuzumab mertansine at a dose of 11 mg/kg once weekly for three weeks (days 12, 19 and 26 post tumor cell inoculation) administered intravenously. The third group received single-agent topotecan administered intraperitoneally at a dose of 0.7 mg/kg on a 5/2/5 schedule (daily×5, 2 days off, daily×5; days 12-16 and 19-23 post tumor cell inoculation). A fourth group was treated with the combination of lorvotuzumab mertansine and topotecan with the same doses and routes of administration as for individual treatments. Tumor growth was monitored by measuring tumor size twice per week. Tumor size was calculated with the formula: length×width×height×½.

[3] = test system: human xenograft preclinical models for ovarian cancer; details: no data given; cited from earlier work
[4] = test system: COLO 720E human ovarian carcinoma xenografts; experiment: Anti-tumor effect of lorvotuzumab mertansine and DOXIL in established subcutaneous COLO 720E xenografts (Example 3); assay type: in vivo, athymic nude mice; design: key to anti-tumor activity rating (NCI standards): Percent T/C values less than or equal to 42% and/or LCK values of 0.5 or greater are considered active; percent T/C values less than 10% are considered highly active
Text: as §1
The anti-tumor effect of a combination of lorvotuzumab mertansine and DOXIL® (i.e., PEGylated Liposomal Doxorubicin (PLD)) was evaluated in an established subcutaneous xenograft model of ovarian cancer. Athymic nude mice were inoculated with COLO 720E human ovarian cancer cells (1×10^7 cells/animal) injected subcutaneously into the right flank. When the tumors reached about 100 mm^3 in size (10 days after tumor cell inoculation), the mice were randomly divided into four groups (six animals per group). A control group was treated with a single intravenous injection of PBS. A second group of mice were treated with the single agent lorvotuzumab mertansine at a dose of 11 mg/kg once weekly for three weeks (days 10, 17 and […] post tumor cell inoculation) administered intravenously. The third group received single-agent DOXIL® at a dose of 11 mg/kg (single injection on day 10 post tumor cell inoculation) administered intravenously. A fourth group was treated with the combination of lorvotuzumab mertansine and DOXIL® with the same doses and routes of administration as for individual treatments. Tumor growth was monitored by measuring tumor size twice per week. Tumor size was calculated with the formula: length×width×height× 1/2.

[5] = lorvotuzumab mertansine 11 mg/kg iv once weekly x3, DOXIL 11 mg/kg iv single injection, combination same doses

| Molecule | % of tumor growth for treated vs. control (T/C) [1] [%] | anti-tumor activity rating (NCI standards) [1] | tumor regressions (any) [1] | mice tumor free until the end of the study [2] | % of tumor growth for treated vs. control (T/C) [2] [%] | anti-tumor activity rating (NCI standards) [2] | complete regression (CR) ([2]; six mice per group) | antitumor activity as a single agent [3] | mice remaining tumor free to the end of the study ([4]; day 118, six mice per group) | % of tumor growth for treated vs. control (T/C) [4, 5] [%] | anti-tumor activity rating (NCI standards) [4, 5] | complete regressions (CR) ([4]; six mice per group) | partial regression (PR) ([2]; six mice per group) |
| --- | --- | --- | --- | --- | --- | --- | --- | --- | --- | --- | --- | --- | --- |
| Nc1ccn([C@@H]2O[C@H](CO)[C@@H](O)C2(F)F)c(=O)n1 [gemcitabine, reference compound] | 77 | inactive | no regressions |  |  |  |  |  |  |  |  |  |  |
| CC[C@@]1(O)C(=O)OCc2c1cc1n(c2=O)Cc2cc3c(CN(C)C)c(O)ccc3nc2-1 [topotecan, reference compound] |  |  |  | no tumor-free mice | 26 | active | one of six |  |  |  |  |  |  |
| B1 | 38 | modest antitumor activity; also recorded: active | no tumor regressions | no tumor-free mice | 59 | inactive |  | marked antitumor activity | one | 14 | active | one and one of six | one of six |
